# Results as given in patent US12065466B2, “Methods and compositions for protein sequencing” (Quantum-Si Incorporated, priority 2020, dated 2024).
# Where two headings read alike, the source gives them in different places.
# B1: PS372: ClpS homolog binding leucine, isoleucine and valine, SEQ ID NO: 5 (protein)
# chain: MAFPARGKTAPKNEVRRQPPYNVILLNDDDHTYRYVIEMLQKIFGFPPEKGFQIAEEVDRTGRVILLTTSKEHAELKQDQVHSYGPDPYLGRPCSGSMTCVIEPAV
# B2: dye-labeled PS372: PEGylated, biotinylated PS372 conjugated 1:1 with streptavidin and a biotinylated Cy3B-labeled oligonucleotide (conjugate)
# chain: B1 chain
# B3: H. sapiens Fyn SH2 domain triple mutant superbinder: SEQ ID NO: 117 (protein, listed as Homo sapiens)
# chain: MGAMDSIQAEEWYFGKLGRKDAERQLLSFGNPRGTFLIRESETVKGAYALSIRDWDDMKGDHVKHYLIRKLDNGGYYITTRAQFETLQQLVQHYSERAAGLSSRLVVPSHK
# B4: teClpS: ClpS protein, SEQ ID NO: 107 (protein, listed as Thermosynechococcus elongatus)
# chain: MPQERQQVTRKHYPNYKVIVLNDDFNTFQHVAACLMKYIPNMTSDRAWELTNQVHYEGQAIVWVGPQEQAELYHEQLLRAGLTMAPLEPE
# B5: atClpS1: Agrobacterium tumifaciens ClpS1, SEQ ID NO: 93 (protein, listed as Agrobacterium tumifaciens)
# chain: MIAEPICMQGEGDGEDGGTNRGTSVITRVKPKTKRPNLYRVLLLNDDYTPMEFVIHILERFFQKDREAATRIMLHVHQHGVGECGVFTYEVAETKVSQVMDFARQHQHPLQCVMEKK
# Legend:
# [1] = system: FITC-labeled peptide (XAKLDEESILKQK-FITC (SEQ ID NO: 238)); test: Fluorescence polarization of ClpS:streptavidin complexes; assay type: binding; conditions: 30 minute incubation at 23° C.
# Description: ClpS homologs were evaluated by fluorescence polarization to measure the interaction of a FITC-labeled peptide (XAKLDEESILKQK-FITC (SEQ ID NO: 238)) with ClpS:streptavidin complexes. Measurements of polarization response (millipolarization, mP) and total intensity for I, V, L, F, Y, and W were performed in a high-throughput 384-well plate format, using 480 nm excitation and 530 nm emission wavelength with readings collected after 30 minute incubation at 23° C. The results with in-solution binding validated that PS372 binds with leucine, isoleucine, and valine with strength of response in the order LA>IA>VA (FIG. 29E). Binding responses of atClpS2-V1 were FA>YA>WA, and those of teClpS were LA>FA>YA>WA.
# [2] = system: amino acid at a terminal position of a polypeptide; test: Amino acid binding preference of recognition proteins (Tables 1 and 2); conditions: Table 1, ClpS proteins; amino acid identity at a terminal position of a polypeptide; inferred from literature and/or demonstrated by the inventors
# Source text: It should be appreciated that these sequences and other examples described herein are meant to be non-limiting, and recognition molecules in accordance with the application can include any homologs, variants thereof, or fragments thereof minimally containing domains or subdomains responsible for peptide recognition.
# [3] = system: immobilized peptides containing an N-terminal amino acid of interest (XAKLDEESILKQK; XXKLDEESILKQK); test: Biolayer interferometry screening of ClpS homologs; assay type: binding; conditions: for binding to isoleucine peptides, effect of penultimate amino acid: IR, IQ, IA peptides; for binding to valine peptides, effect of penultimate amino acid: VA, VR peptides
# Description: The amino acid binding profile of each new homolog was evaluated by biolayer interferometry. ClpS proteins with known binding profiles (atClpS2-V1, atClpS1, and teClpS) were included as controls. In these assays, peptides containing an N-terminal amino acid of interest were immobilized on a biolayer interferometry sensor surface, allowed to bind to ClpS protein, and incubated in buffer to allow the ClpS molecules to dissociate. The binding response (nm) and dissociation off-rate (kdis, s^−1) were measured using a kinetic model. Measurements with each ClpS protein were carried out at 30° C. for the amino acids I, V, M, F. Y, and W, along with D, E, A, and R as negative controls. All peptides contained a penultimate alanine (A) and consisted of the sequence XAKLDEESILKQK (SEQ ID NO: 238).
# Results from the biolayer interferometry screening of 61 ClpS homologs (58 new homologs, 3 reference homologs) are shown in FIG. 29B. Response (y-axis) is plotted against the inverse of dissociation rate for eight different dipeptides (data not shown for negative controls DA, AA, and RA). In these plots, higher values on the y-axis correspond to stronger association response and higher values on the x-axis indicate slower dissociation rates.
# The effect of penultimate amino acids on isoleucine and valine binding by PS372 were evaluated by measuring binding to peptides with N-terminal IR, IQ, and VR by biolayer interferometry (peptide sequence: XXKLDEESILKQK (SEQ ID NO: 291)). Measurements were also obtained with teClpS for comparison.
# [4] = system: peptides with different N-terminal amino acids, penultimate alanine; test: Biolayer interferometry of multivalent amino acid binders; assay type: binding
# Description: The amino acid binding profile of each Bis-atClpS2-V1 binder (PS609, PS610, and PS611) was evaluated by biolayer interferometry as described above. The monovalent atClpS2-V1 was run as a control. Measurements with each binder were carried out for the amino acids F, Y, and W, along with I, L, M, and V as negative controls. All peptides contained a penultimate alanine (A). Response curves for the tandem binders PS609, PS610, and PS611 are shown in FIGS. 35B, 35C, and 35D, respectively.
# The multivalent binder PS612 is a polypeptide that contains tandem copies of two different ClpS protein monomers (atClpS2-V1 and PS372). The amino acid binding profile of PS612 was evaluated by biolayer interferometry as described above. The monovalent binders atClpS2-V1 and PS372 were separately run as controls.
# The multivalent binder PS614 is a polypeptide that contains two copies of the ClpS binder PS372 oriented in tandem. The amino acid binding profile of PS614 was evaluated by biolayer interferometry as described above.
# The multivalent binders PS637, PS638, and PS639 are polypeptides that each contain two copies of the ClpS binder PS557 oriented in tandem and separated by Linker 1, Linker 2, and Linker 3, respectively. The amino acid binding profiles of each binder was evaluated by biolayer interferometry as described above.
# [5] = system: LF, LA, IR, IA, VR, and VA peptides; test: Binder-on-chip single-molecule assay (PS372); assay type: binding
# Description: Binder-on-chip experiments were performed for PS372 with LF, LA, IR, IA, VR, and VA peptides to evaluate recognition by signal pulse detection in single-molecule assays. […] For comparison, the mean pulse width observed with the L-binder teClpS was 768 ms (˜37% shorter than PS372).
# [6] = system: N-terminal isoleucine peptide and N-terminal leucine peptide; test: Peptide-on-chip recognition assay with labeled PS372; assay type: binding
# [7] = system: amino acid at a terminal position of a polypeptide; conditions: Table 2; amino acid identity at a terminal position (phosphotyrosine also internal); inferred from literature and/or demonstrated by the inventors; cited from earlier work
# [8] = target: T1, fluorescently-labeled peptide containing N-terminal phospho-tyrosine (Homo sapiens, UniProt P06241, C239S/C240S/C246S/K204L/S186A/T181V); test: Single-molecule recognition of modified amino acids by immobilized Fyn SH2 variant; assay type: binding
# T1 construct: Src Homology 2 (SH2) domain from Fyn
# Description: Experiments were performed to evaluate recognition of amino acids containing specific post-translation modifications. […] The variant protein was immobilized to the bottom of sample wells, and single-molecule signal traces were collected upon addition of a fluorescently-labeled peptide containing N-terminal phospho-tyrosine. […] Pulse duration data collected during these experiments is shown in FIG. 22B (top, middle, and bottom plots corresponding to the top, middle, and bottom traces of FIG. 22A, respectively). Pulse duration and interpulse duration statistics are shown in FIG. 22C (top and bottom panels, respectively). Control experiments were performed to confirm that the Fyn protein was specific for the phosphorylated tyrosine. The experiments were repeated for each of three different peptides: a first peptide containing N-terminal unmodified tyrosine (Y; FIG. 22D), a second peptide containing N-terminal and penultimate unmodified tyrosines (YY; FIG. 22E), and a third peptide containing N-terminal phospho-serine (FIG. 22F).
# [9] = system: N-terminal amino acids of peptides; test: Single-molecule terminal amino acid recognition by labeled recognition molecule (dwell time analysis); assay type: binding
# Description: An adaptor protein involved in proteolytic pathways was identified as a potential candidate for use as a labeled recognition molecule for detecting N-terminal aromatic residues. The adaptor protein, ClpS2 from an α-proteobacterium (A. tumefaciens), was expressed and labeled at an exposed cysteine residue. […] The exposed cysteine residue was labeled with a rhodamine dye (ATTO 532).
# Peptides having different N-terminal aromatic residues were prepared to test whether the labeled ClpS2 was capable of N-terminal amino acid discrimination at the single molecule level.
# FIG. 19C is a plot showing discriminant pulse durations (time duration of signal peaks) among the three N-terminal residues when reversibly bound by labeled ClpS2. FIG. 19D is a plot showing discriminant interpulse durations (time duration between signal pulses) among the three N-terminal residues. […] Mean pulse duration for the different N-terminal residues is visualized by histograms (A)-(B) and layered histogram (C).
# [10] = system: immobilized peptide containing N-terminal phenylalanine (FYPLPWPDDDY (SEQ ID NO: 235)); test: Simultaneous single-molecule recognition with differentially labeled recognition molecules; assay type: binding; conditions: 500 nM each binder
# Description: Single peptide molecules containing N-terminal phenylalanine ([…] (SEQ ID NO: 235)) were immobilized in sample wells of a chip. Buffer containing 500 nM each of atClpS1 (Agrobacterium tumifaciens ClpS1; sequence provided in Table 1) and atClpS2-V1 (Agrobacterium tumifaciens ClpS2 variant 1; sequence provided in Table 1) was added, where atClpS1 and atClpS2-V1 were labeled with Cy3 and Cy3B, respectively. Since the intensity of Cy3B is higher than Cy3, atClpS2-V1 binding events were readily distinguishable from atClpS1 binding events.
# The pulse duration distributions were distinct for each binder (FIG. 24B) and corresponded to their kinetic profiles as observed in single-binder experiments. Mean pulse duration was 1.3 seconds for atClpS1 and 1.0 seconds for atClpS2-V1 (FIG. 24C). Pulse rate was also distinct: 8.1 pulses/min for atClpS1 and 14.1 pulses/min for atClp2-V1 (FIG. 24C).
molecule,measurement,setting,value
B1,order of strength of polarization response,[1],LA>IA>VA
same,Binding Pref.,[2],"L, I, V"
same,amino acids bound (biolayer interferometry),"[3]; 30° C., penultimate alanine","binder of leucine, isoleucine, and valine"
same,"binding to the F, Y, or W peptides","[3]; 30° C., penultimate alanine",did not show binding
same,"binding to isoleucine peptides, effect of penultimate amino acid",[3],binds IQ and IA with higher affinity relative to IR
same,"binding to valine peptides, effect of penultimate amino acid",[3],binds well with VA and has negligible response with VR
same,N-terminal amino acids bound (biolayer interferometry),[4],"binds N-terminal I, L, and V"
same,mean pulse width,[5]; IA peptide,70 ms
same,mean pulse width,[5]; IR peptide,83 ms
same,mean pulse width,[5]; LA peptide,876 ms
same,mean pulse width,[5]; LF peptide,1207 ms
B2,mean pulse width,[6]; N-terminal isoleucine peptide (IAALAAVAADDDW (SEQ ID NO: 239)),78 ms
same,mean pulse width,[6]; N-terminal leucine peptide (LAAIAAFAADDDW (SEQ ID NO: 292)),957 ms
B3,Binding Pref.,[7],phospho-Y
same,peptide binding (single-molecule signal traces),"[8]; negative controls: N-terminal unmodified tyrosine (Y), YY, N-terminal phospho-serine",binding was not detected
same,peptide binding (single-molecule signal traces),[8]; peptide containing N-terminal phospho-tyrosine,Peptide binding by the immobilized protein was detected
B4,order of strength of polarization response,[1],LA>FA>YA>WA
same,Binding Pref.,[2],"F, W, Y, L"
same,"binding to isoleucine peptides, effect of penultimate amino acid",[3],minor response with very fast dissociation for IR peptide only
same,"binding to valine peptides, effect of penultimate amino acid",[3],no response with V peptides
same,mean pulse duration,[9]; terminal leucine residue,0.71 s
same,mean pulse width,"[5]; L-binder comparison, peptide not stated",768 ms
B5,Binding Pref.,[2],"F, W, Y, L"
same,recognition of terminal amino acids (dwell time analysis),[9],"differentiable recognition of phenylalanine, leucine, tryptophan, and tyrosine"
same,Pulse rate,[10],8.1 pulses/min
same,mean pulse duration,[10],1.3 s
